For this assay, the target named is T1, human CD48 (full-length hCD48), on cells (human, UniProt P09326 27-220).
T1 construct: also called membrane-associated CD48
T1 sequence: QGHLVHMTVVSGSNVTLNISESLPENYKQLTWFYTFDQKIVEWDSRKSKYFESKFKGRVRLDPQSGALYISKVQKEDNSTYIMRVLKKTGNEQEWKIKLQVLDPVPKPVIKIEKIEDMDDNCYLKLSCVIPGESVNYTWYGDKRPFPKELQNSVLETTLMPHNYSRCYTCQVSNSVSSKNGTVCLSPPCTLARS
Description: not told at this place (summary sentence in the description). The method, then: Equilibrium binding assays were performed on transiently expressed hCD48. Full-length hCD48 in the expression vector pDC409 was transfected into CV-1/EBNA cells and these cells were diluted 1:20 into a carrier cell (Daudi). Serial dilutions of NAIL-Fc in binding media (RPMI 1640), 2.5% bovine serum albumin, […] HEPES, 0.02% Na azide [pH 7.2]) were incubated with cells (combination of carrier cells and transiently expressed cells 2.5×10⁶ combined cells/well) for 2 hours at 4° C. in a total of […] in a 96-well microtiter plate. The plate was centrifuged and the supernatants were aspirated. One-hundred fifty microliters of ¹²⁵I goat anti-human IgG Fcγ (Jackson Immunoresearch Laboratories, Inc., West Grove, Pa.; cat #109-006-098) was added to each well and cells were incubated another 1 hour at 4° C. Free and bound probes were separated by the pthalate oil separation method, essentially as described (Dower et al., J.Immunol. 132:751-758, 1984). Goat anti-human IgG Fcγ was labeled with […] using solid phase chloramine T analog (Iodogen; Pierce Chemical, Rockford, Ill.) to a specific radioactivity of 2.11×10¹⁵ cpm/mmol. […] No binding of C1.7-Fc or CD48-Fc proteins could be detected on nontransfected cells.

In general, Kd refers to the free concentration of one partner at which half of the binding sites on the other are occupied at equilibrium, for simple one-to-one binding.

B1: NAIL-Fc polypeptide (soluble NAIL-Fc fusion protein) (Fc fusion)
chain: CQGSADHVVSISGVPLQLQPNSIQTKVDSIAWKKLLPSQNGFHHILKWENGSLPSNTSNDRFSFIVKNLSLLIKAAQQQDSGLYCLEVTSISGKVQTATFQVFVFDKVEKPRLQGQGKILDRGRCQVALSCLVSRDGNVSYAWYRGSKLIQTAGNLTYLDEEVDINGTHTYTCNVSNPVSWESHTLNLTQDCQNAHQEFRRSCDKTHTCPPCPAPEAEGAPSVFLFPPKPKDTLMISRTPEVTCVVVDVSHEDPEVKFNWYVDGVEVHNAKTKPREEQYNSTYRVVSVLTVLHQDWLNGKEYKCKVSNKALPAPIEKTISKAKGQPREPQVYTLPPSREEMTKNQVSLTCLVKGFYPSDIAVEWESNGQPENNYKTTPPVLDSDGSFFLYSKLTVDKSRWQQGNVFSCSVMHEALHNHYTQKSLSLSPGK
notes: also called C1.7-Fc; soluble NAIL polypeptide
For the molecule B1, the Kd is approximately 100 pM.

The values are drawn from patent US20080081043A1 (published 2008).
